Results from US20210388110A1 (published 2021).
Where a chain is given by its changes, count along the chain named.

B1: TR01H014-E22Hh/none-Hi-Kn010G3/L0000-k0 (antibody, human IgG1, kappa, L234A L235A, N297A)
heavy: QVQLVESGGGLVQPGRSLRLSCAASGFTFSNAWMHWVRQAPGKGLEWVAQIKGKSNNYATYYAPSVKGRFTISRADSKNSIYLQMNSLKTEDTAVYYCRYVHYGAYYGVDIWGQGTTVTVSSASTKGPSVFPLAPSSKSTSGGTAALGCLVKDYFPEPVTVSWNSGALTSGVHTFPAVLQSSGLYSLSSVVTVPSSSLGTQTYICNVNHKPSNTKVDKKVEPKSCDKTHTCPPCPAPEAAGGPSVFLFPPKPKDTLMISRTPEVTCVVVDVSHEDPEVKFNWYVDGVEVHNAKTKPREEQYASTYRVVSVLTVLHQDWLNGKEYKCKVSNKALPAPIEKTISKAKGQPREPQVYTLPPSRCELTKNQVSLSCAVKGFYPSDIAVEWESNGQPENNYKTTPPVLDSDGSFFLVSKLTVDKSRWQQGNVFSCSVMHEALHNHYTQKSLSLSPDYKDDDDK
chain: EPKSSDKTHTCPPCPAPELLGGPSVFLFPPKPKDTLMISRTPEVTCVVVDVSHEDPEVKFNWYVDGVEVHNAKTKPREEQYNSTYRVVSVLTVLHQDWLNGKEYKCKVSNKALPAPIEKTISKAKGQPREPQVCTLPPSRDELTKNQVSLWCLVKGFYPSDIAVEWESNGQPENNYKTTPPVLDSDGSFFLYSKLTVDKSRWQQGNVFSCSVMHEALHNRYTQKSLSLSP
light: DIVMTQSPLSLPVTPGEPASISCRSSQSLVHSNRNTYLHWYQQKPGQAPRLLIYKVSNRFSGVPDRFSGSGSGTDFTLKISRVEAEDVGVYYCGQGTQVPYTFGQGTKLEIKRTVAAPSVFIFPPSDEQLKSGTASVVCLLNNFYPREAKVQWKVDNALQSGNSQESVTEQDSKDSTYSLSSTLTLSKADYEKHKVYACEVTHQGLSSPVTKSFNRGEC
notes: single-arm
B2: TR01H015-E22Hh/none-Hi-Kn010G3/L0000-k0 (antibody, human IgG1, kappa, L234A L235A, N297A)
heavy: B1 heavy with P64E, G104S, Y106S
chain: B1 chain
light: B1 light
notes: single-arm
B3: TR01H015-E22Hh/none-Hi-Kn010G3/TR01L001-k0 (antibody, human IgG1, kappa, L234A L235A, N297A)
heavy: B1 heavy with P64E, G104S, Y106S
chain: B1 chain
light: B1 light with R24Q, S25A, Q27E
notes: single-arm
B4: TR01H015-E22Hh/none-Hi-Kn010G3/TR01L003-k0 (antibody, human IgG1, kappa, L234A L235A, N297A)
heavy: B1 heavy with P64E, G104S, Y106S
chain: B1 chain
light: B1 light with L109V, K112E
notes: single-arm
B5: TR01H015-E22Hh/none-Hi-Kn010G3/TR01L005-k0 (antibody, human IgG1, kappa, L234A L235A, N297A)
heavy: B1 heavy with P64E, G104S, Y106S
chain: B1 chain
light: B1 light with Q42L, A48S, R50Q, L109V, K112E
notes: single-arm
B6: TR01H016-E22Hh/none-Hi-Kn010G3/L0000-k0 (antibody, human IgG1, kappa, L234A L235A, N297A)
heavy: B1 heavy with P64E, G104S, A105Y, Y106S
chain: B1 chain
light: B1 light
notes: single-arm
B7: TR01H017-E22Hh/none-Hi-Kn010G3/L0000-k0 (antibody, human IgG1, kappa, L234A L235A, N297A)
heavy: B1 heavy with R16G, G53A, P64E
chain: B1 chain
light: B1 light
notes: single-arm
B8: TR01H018-E22Hh/none-Hi-Kn010G3/L0000-k0 (antibody, human IgG1, kappa, L234A L235A, N297A)
heavy: B1 heavy with R16G, P64E, G104S, Y106S
chain: B1 chain
light: B1 light
notes: single-arm
B9: TR01H019-E22Hh/none-Hi-Kn010G3/L0000-k0 (antibody, human IgG1, kappa, L234A L235A, N297A)
heavy: B1 heavy with N56Q, P64E, G104S, Y106S
chain: B1 chain
light: B1 light
notes: single-arm
B10: TR01H020-E22Hh/none-Hi-Kn010G3/L0000-k0 (antibody, human IgG1, kappa, L234A L235A, N297A)
heavy: B1 heavy with G104S, Y106S
chain: B1 chain
light: B1 light
notes: single-arm
B11: TR01H025-E22Hh/none-Hi-Kn010G3/L0000-k0 (antibody, human IgG1, kappa, L234A L235A, N297A)
heavy: B1 heavy with G53S, N56Q, P64E, G104S, Y106S
chain: B1 chain
light: B1 light
notes: single-arm
B12: TR01H026-E22Hh/none-Hi-Kn010G3/L0000-k0 (antibody, human IgG1, kappa, L234A L235A, N297A)
heavy: B1 heavy with R16G, G53S, N56Q, P64E, G104S, Y106S
chain: B1 chain
light: B1 light
notes: single-arm
B13: TR01H027-E22Hh/none-Hi-Kn010G3/L0000-k0 (antibody, human IgG1, kappa, L234A L235A, N297A)
heavy: B1 heavy with R16G, G53S, N56Q, P64E, G104S, Y106S, I111A
chain: B1 chain
light: B1 light
notes: single-arm
B14: TR01H028-E22Hh/none-Hi-Kn010G3/L0000-k0 (antibody, human IgG1, kappa, L234A L235A, N297A)
heavy: B1 heavy with L11V, R16G, G53S, N56Q, P64E, G104S, Y106S
chain: B1 chain
light: B1 light
notes: single-arm
B15: TR01H029-E22Hh/none-Hi-Kn010G3/L0000-k0 (antibody, human IgG1, kappa, L234A L235A, N297A)
heavy: B1 heavy with A23S, P64E, G104S, Y106S
chain: B1 chain
light: B1 light
notes: single-arm
B16: TR01H030-E22Hh/none-Hi-Kn010G3/L0000-k0 (antibody, human IgG1, kappa, L234A L235A, N297A)
heavy: B1 heavy with L11V, P64E, G104S, Y106S
chain: B1 chain
light: B1 light
notes: single-arm
B17: TR01H032-E22Hh/none-Hi-Kn010G3/L0000-k0 (antibody, human IgG1, kappa, L234A L235A, N297A)
heavy: B1 heavy with G53S, N56Q, P64E, G104S, Y106S, I111A
chain: B1 chain
light: B1 light
notes: single-arm
B18: TR01H033-E22Hh/none-Hi-Kn010G3/L0000-k0 (antibody, human IgG1, kappa, L234A L235A, N297A)
heavy: B1 heavy with G53S, N56Q, P64E, G104S, Y106S, I111Y
chain: B1 chain
light: B1 light
notes: single-arm
B19: TR01H036-E22Hh/none-Hi-Kn010G3/L0000-k0 (antibody, human IgG1, kappa, L234A L235A, N297A)
heavy: B1 heavy with P64E, G104S, Y106S, I111Y
chain: B1 chain
light: B1 light
notes: single-arm
B20: TR01H037-E22Hh/none-Hi-Kn010G3/L0000-k0 (antibody, human IgG1, kappa, L234A L235A, N297A)
heavy: B1 heavy with H35P, P64E, G104S, Y106S
chain: B1 chain
light: B1 light
notes: single-arm
B21: TR01H038-E22Hh/none-Hi-Kn010G3/L0000-k0 (antibody, human IgG1, kappa, L234A L235A, N297A)
heavy: B1 heavy with G53D, P64E, G104S, Y106S
chain: B1 chain
light: B1 light
notes: single-arm
B22: TR01H039-E22Hh/none-Hi-Kn010G3/L0000-k0 (antibody, human IgG1, kappa, L234A L235A, N297A)
heavy: B1 heavy with G53D, N56Q, P64E, G104S, Y106S
chain: B1 chain
light: B1 light
notes: single-arm
B23: TR01H040-E22Hh/none-Hi-Kn010G3/L0011-k0 (antibody, human IgG1, kappa, L234A L235A, N297A)
heavy: B1 heavy with G53D, N56Q, P64E, G104S, Y106S, I111A
chain: B1 chain
light: B1 light with S28P
notes: single-arm
B24: TR01H040-E22Hh/none-Hi-Kn010G3/L0200-k0 (antibody, human IgG1, kappa, L234A L235A, N297A)
heavy: B1 heavy with G53D, N56Q, P64E, G104S, Y106S, I111A
chain: B1 chain
light: B1 light with S25P, L29P
notes: single-arm
B25: TR01H040-E22Hh/none-Hi-Kn010G3/L0201-k0 (antibody, human IgG1, kappa, L234A L235A, N297A)
heavy: B1 heavy with G53D, N56Q, P64E, G104S, Y106S, I111A
chain: B1 chain
light: B1 light with S28P, L29P
notes: single-arm
B26: TR01H040-E22Hh/none-Hi-Kn010G3/L0202-k0 (antibody, human IgG1, kappa, L234A L235A, N297A)
heavy: B1 heavy with G53D, N56Q, P64E, G104S, Y106S, I111A
chain: B1 chain
light: B1 light with L29P, N35W
notes: single-arm
B27: TR01H040-E22Hh/none-Hi-Kn010G3/L0203-k0 (antibody, human IgG1, kappa, L234A L235A, N297A)
heavy: B1 heavy with G53D, N56Q, P64E, G104S, Y106S, I111A
chain: B1 chain
light: B1 light with L29P, L38I
notes: single-arm
B28: TR01H040-E22Hh/none-Hi-Kn010G3/L0204-k0 (antibody, human IgG1, kappa, L234A L235A, N297A)
heavy: B1 heavy with G53D, N56Q, P64E, G104S, Y106S, I111A
chain: B1 chain
light: B1 light with L29P, S61R
notes: single-arm
B29: TR01H040-E22Hh/none-Hi-Kn010G3/L0205-k0 (antibody, human IgG1, kappa, L234A L235A, N297A)
heavy: B1 heavy with G53D, N56Q, P64E, G104S, Y106S, I111A
chain: B1 chain
light: B1 light with L29P, S61W
notes: single-arm
B30: TR01H040-E22Hh/none-Hi-Kn010G3/L0206-k0 (antibody, human IgG1, kappa, L234A L235A, N297A)
heavy: B1 heavy with G53D, N56Q, P64E, G104S, Y106S, I111A
chain: B1 chain
light: B1 light with L29P, G94Y
notes: single-arm
B31: TR01H040-E22Hh/none-Hi-Kn010G3/L0207-k0 (antibody, human IgG1, kappa, L234A L235A, N297A)
heavy: B1 heavy with G53D, N56Q, P64E, G104S, Y106S, I111A
chain: B1 chain
light: B1 light with L29P, S61R, G94Y
notes: single-arm
B32: TR01H040-E22Hh/none-Hi-Kn010G3/L0208-k0 (antibody, human IgG1, kappa, L234A L235A, N297A)
heavy: B1 heavy with G53D, N56Q, P64E, G104S, Y106S, I111A
chain: B1 chain
light: B1 light with L29P, S61W, G94Y
notes: single-arm
B33: TR01H040-E22Hh/none-Hi-Kn010G3/L0209-k0 (antibody, human IgG1, kappa, L234A L235A, N297A)
heavy: B1 heavy with G53D, N56Q, P64E, G104S, Y106S, I111A
chain: B1 chain
light: B1 light with L29P, L38I, G94Y
notes: single-arm
B34: TR01H040-E22Hh/none-Hi-Kn010G3/L0210-k0 (antibody, human IgG1, kappa, L234A L235A, N297A)
heavy: B1 heavy with G53D, N56Q, P64E, G104S, Y106S, I111A
chain: B1 chain
light: B1 light with L29P, N35W, G94Y
notes: single-arm
B35: TR01H040-E22Hh/none-Hi-Kn010G3/L0211-k0 (antibody, human IgG1, kappa, L234A L235A, N297A)
heavy: B1 heavy with G53D, N56Q, P64E, G104S, Y106S, I111A
chain: B1 chain
light: B1 light with S28P, L29P, G94Y
notes: single-arm
B36: TR01H040-E22Hh/none-Hi-Kn010G3/L0212-k0 (antibody, human IgG1, kappa, L234A L235A, N297A)
heavy: B1 heavy with G53D, N56Q, P64E, G104S, Y106S, I111A
chain: B1 chain
light: B1 light with S25P, L29P, G94Y
notes: single-arm

Each binder was assayed against T1, soluble human CD3ε chain (human, UniProt P07766 23-126, limits assumed) (assay: SPR (Biacore)).
T1 construct: the text says soluble human CD3ε chain; also called human CD3 epsilon chain
T1 sequence (P07766 23-126 limits assumed): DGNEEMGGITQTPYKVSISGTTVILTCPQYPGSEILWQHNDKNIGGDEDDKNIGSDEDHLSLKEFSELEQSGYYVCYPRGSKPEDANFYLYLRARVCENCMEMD

Binder	Kd [nM]
B1	38.7
B2	61.3
B3	65.6
B4	63.4
B5	65.3
B6	36.9
B7	35
B8	69.3
B9	68.5
B10	64.8
B11	38.6
B12	51.2
B13	69.5
B14	48
B15	67
B16	65.4
B17	57.3
B18	48.8

Binder	Kd [nM]
B19	65
B20	6.93
B21	12.4
B22	26.1
B23	34.8
B24	28.7
B25	28.1
B26	61.9
B27	32.4
B28	22.1
B29	34.2
B30	2.9
B31	2.6
B32	4.16
B33	4.25
B34	5.06
B35	3.22
B36	2.17
